Patent publication US20220074941A1, “HSP90 COMBINATION THERAPY” (Sloan-Kettering Institute for Cancer Research, priority 2011, published 2022)

B1: ZG16B (protein, UniProt Q96DA0 17-172, looked up)
Pancreatic adenocarcinoma …: GKMYGPGGGKYFSTTEDYDHEITGLRVSVGLLLVKSVQVKLGDSWDVKLGALGGNTQEVTLQPGEYITKVFVAFQAFLRGMVMYTSKDRYFYFGKLDGQISSAYPSQEGQVLVGIYGQYQLLGIKSIGFEWNYPLEEPTTEPPVNLTYSANSPVGR
B2: HEATR2 (protein, UniProt Q86Y56 2-855, looked up)
Dynein axonemal assembly …: AALGVAEAVAAPHPAEGAETAEAVELSRALSRLLPGLEADSKPGRRRALEALRRALEEPGPAADPTAFQGPWARLLLPRLLRCLSDPAEGCRALAVHLLDLGLRRAARPRDALPRLLPALAARLAGPVPARRPPEACEELRLALVQLLGLAVDLCGAALAPHLDDALRALRCSLLDPFAAVRRESCSCAAALAQATPDHFHMQSESLIGPLMQTISHQHWKVRVAAIEATGAVIHFGNGKSVDDVLSHFAQRLFDDVPQVRRAVASVVGGWLLCLRDRYSFFHKLIPLLLSSLNDEVPEVRQLAASLWEDVGLQWQKENEEDLKDKLDFAPPTPPHYPPHERRPVLGCRELVFRNLSKILPALCHDITDWVVGTRVKSAQLLPVLLLHAEDHATQHLEVVLRTLFQACTDEEAAVVQSCTRSAELVGTFVSPEVFLKLILSTLKKTPSASGLLVLASAMRGCPREALQPHLAAIATELAQAHICQASENDLYLERLLLCVQALVSVCHEDCGVASLQLLDVLLTIVALAGATGLRDKAQETMDSLAMVEGVSSCQDLYRKHIGPLLERVTASHLDWTAHSPELLQFSVIVAQSGPALGEALPHVVPTLRACLQPSQDPQMRLKLFSILSTVLLRATDTINSQGQFPSYLETVTKDILAPNLQWHAGRTAAAIRTAAVSCLWALTSSEVLSAEQIRDVQETLMPQVLTTLEEDSKMTRLISCRIINTFLKTSGGMTDPEKLIRIYPELLKRLDDVSNDVRMAAASTLVTWLQCVKGANAKSYYQSSVQYLYRELLVHLDDPERAIQDAILEVLKEGSGLFPDLLVRETEAVIHKHRSATYCEQLLQHVQAVPATQ
B3: TRIM56 (protein, UniProt Q9BRZ2 1-755, looked up)
E3 ubiquitin-protein ligase …: MVSHGSSPSLLEALSSDFLACKICLEQLRAPKTLPCLHTYCQDCLAQLADGGRVRCPECRETVPVPPEGVASFKTNFFVNGLLDLVKARACGDLRAGKPACALCPLVGGTSTGGPATARCLDCADDLCQACADGHRCTRQTHTHRVVDLVGYRAGWYDEEARERQAAQCPQHPGEALRFLCQPCSQLLCRECRLDPHLDHPCLPLAEAVRARRPGLEGLLAGVDNNLVELEAARRVEKEALARLREQAARVGTQVEEAAEGVLRALLAQKQEVLGQLRAHVEAAEEAARERLAELEGREQVARAAAAFARRVLSLGREAEILSLEGAIAQRLRQLQGCPWAPGPAPCLLPQLELHPGLLDKNCHLLRLSFEEQQPQKDGGKDGAGTQGGEESQSRREDEPKTERQGGVQPQAGDGAQTPKEEKAQTTREEGAQTLEEDRAQTPHEDGGPQPHRGGRPNKKKKFKGRLKSISREPSPALGPNLDGSGLLPRPIFYCSFPTRMPGDKRSPRITGLCPFGPREILVADEQNRALKRFSLNGDYKGTVPVPEGCSPCSVAALQSAVAFSASARLYLINPNGEVQWRRALSLSQASHAVAALPSGDRVAVSVAGHVEVYNMEGSLATRFIPGGKASRGLRALVFLTTSPQGHFVGSDWQQNSVVICDGLGQVVGEYKGPGLHGCQPGSVSVDKKGYIFLTLREVNKVVILDPKGSLLGDFLTAYHGLEKPRVTTMVDGRYLVVSLSNGTIHIFRVRSPDS
B4: KIAA1468 (protein, UniProt Q9P260 2-1216, looked up)
RAB11-binding protein RELCH: AAMAPGGSGSGGGVNPFLSDSDEDDDEVAATEERRAVLRLGAGSGLDPGSAGSLSPQDPVALGSSARPGLPGEASAAAVALGGTGETPARLSIDAIAAQLLRDQYLLTALELHTELLESGRELPRLRDYFSNPGNFERQSGTPPGMGAPGVPGAAGVGGAGGREPSTASGGGQLNRAGSISTLDSLDFARYSDDGNRETDEKVAVLEFELRKAKETIQALRANLTKAAEHEVPLQERKNYKSSPEIQEPIKPLEKRALNFLVNEFLLKNNYKLTSITFSDENDDQDFELWDDVGLNIPKPPDLLQLYRDFGNHQVTGKDLVDVASGVEEDELEALTPIISNLPPTLETPQPAENSMLVQKLEDKISLLNSEKWSLMEQIRRLKSEMDFLKNEHFAIPAVCDSVQPPLDQLPHKDSEDSGQHPDVNSSDKGKNTDIHLSISDEADSTIPKENSPNSFPRREREGMPPSSLSSKKTVHFDKPNRKLSPAFHQALLSFCRMSADSRLGYEVSRIADSEKSVMLMLGRCLPHIVPNVLLAKREELIPLILCTACLHPEPKERDQLLHILFNLIKRPDDEQRQMILTGCVAFARHVGPTRVEAELLPQCWEQINHKYPERRLLVAESCGALAPYLPKEIRSSLVLSMLQQMLMEDKADLVREAVIKSLGIIMGYIDDPDKYHQGFELLLSALGDPSERVVSATHQVFLPAYAAWTTELGNLQSHLILTLLNKIEKLLREGEHGLDEHKLHMYLSALQSLIPSLFALVLQNAPFSSKAKLHGEVPQIEVTRFPRPMSPLQDVSTIIGSREQLAVLLQLYDYQLEQEGTTGWESLLWVVNQLLPQLIEIVGKINVTSTACVHEFSRFFWRLCRTFGKIFTNTKVKPQFQEILRLSEENIDSSAGNGVLTKATVPIYATGVLTCYIQEEDRKLLVGFLEDVMTLLSLSHAPLDSLKASFVELGANPAYHELLLTVLWYGVVHTSALVRCTAARMFELTLRGMSEALVDKRVAPALVTLSSDPEFSVRIATIPAFGTIMETVIQRELLERVKMQLASFLEDPQYQDQHSLHTEIIKTFGRVGPNAEPRFRDEFVIPHLHKLALVNNLQIVDSKRLDIATHLFEAYSALSCCFISEDLMVNHFLPGLRCLRTDMEHLSPEHEVILSSMIKECEQKVENKTVQEPQGSMSIAASLVSEDTKTKFLNKMGQLTTSGAMLANVFQRKK
B5: HYOU1 (protein, UniProt Q9Y4L1 33-999, looked up)
Hypoxia up-regulated protein 1: LAVMSVDLGSESMKVAIVKPGVPMEIVLNKESRRKTPVIVTLKENERFFGDSAASMAIKNPKATLRYFQHLLGKQADNPHVALYQARFPEHELTFDPQRQTVHFQISSQLQFSPEEVLGMVLNYSRSLAEDFAEQPIKDAVITVPVFFNQAERRAVLQAARMAGLKVLQLINDNTATALSYGVFRRKDINTTAQNIMFYDMGSGSTVCTIVTYQMVKTKEAGMQPQLQIRGVGFDRTLGGLEMELRLRERLAGLFNEQRKGQRAKDVRENPRAMAKLLREANRLKTVLSANADHMAQIEGLMDDVDFKAKVTRVEFEELCADLFERVPGPVQQALQSAEMSLDEIEQVILVGGATRVPRVQEVLLKAVGKEELGKNINADEAAAMGAVYQAAALSKAFKVKPFVVRDAVVYPILVEFTREVEEEPGIHSLKHNKRVLFSRMGPYPQRKVITFNRYSHDFNFHINYGDLGFLGPEDLRVFGSQNLTTVKLKGVGDSFKKYPDYESKGIKAHFNLDESGVLSLDRVESVFETLVEDSAEEESTLTKLGNTISSLFGGGTTPDAKENGTDTVQEEEESPAEGSKDEPGEQVELKEEAEAPVEDGSQPPPPEPKGDATPEGEKATEKENGDKSEAQKPSEKAEAGPEGVAPAPEGEKKQKPARKRRMVEEIGVELVVLDLPDLPEDKLAQSVQKLQDLTLRDLEKQEREKAANSLEAFIFETQDKLYQPEYQEVSTEEQREEISGKLSAASTWLEDEGVGATTVMLKEKLAELRKLCQGLFFRVEERKKWPERLSALDNLLNHSSMFLKGARLIPEMDQIFTEVEMTTLEKVINETWAWKNATLAEQAKLPATEKPVLLSKDIEAKMMALDREVQYLLNKAKFTKPRPRPKDKNGTRAEPPLNASASDQGEKVIPPAGQTEDAEPISEPEKVETGSEPGDTEPLELGGPGAEPEQKEQSTGQKRPLKNDEL

Experiments:
[1] = system: Hsp90 complexes in Mia-PaCa-2 cell extract; assay: Nano-LC-MS/MS of PU-beads pull-downs; assay type: binding, human; conditions: protein identified in PU-beads pull-down of Mia-PaCa-2 cell extract; QSTAR-Elite QTof MS
Procedure: (§1) Lysates prepared as mentioned above were first pre-cleaned by incubation with control beads overnight at 4° C. […] Beads were washed with lysis buffer, proteins eluted by boiling in 2% SDS, separated on a denaturing gel and Coomassie stained according to manufacturer's procedure (Biorad). […] Analyses of the batch purified pools were done using a QSTAR-Elite hybrid quadrupole time-of-flight mass spectrometer (QTof MS) (AB/MDS Sciex), equipped with a nano spray ion source. Peptide mixtures (in 20 μL) are loaded onto a trapping guard column (0.3×5-mm PepMap C18 100 cartridge from LC Packings) using an Eksigent nano MDLC system (Eksigent Technologies, Inc) at a flow rate of 20 μL/min. […] Electrospray ionization (ESI) needle voltage was set at about 1800 V. The mass analyzer is operated in automatic, data-dependent MS/MS acquisition mode, with the threshold set to 10 counts per second of doubly or triply charged precursor ions selected for fragmentation scans. Survey scans of 0.25 sec are recorded from 400 to 1800 amu; up to 3 MS/MS scans are then collected sequentially for the selected precursor ions, recording from 100 to 1800 amu. The collision energy is automatically adjusted in accordance with the m/z value of the precursor ions selected for MS/MS. Selected precursor ions are excluded from repeated selection for 60 sec after the end of the corresponding fragmentation duty cycle. […] One missed tryptic cleavage site was allowed, precursor ion mass tolerance=0.4 Da fragment ion mass tolerance=0.4 Da, protein modifications were allowed for Met-oxide, Cys-acrylamide and N-terminal acetylation. MudPit scoring was typically applied with ‘require bold red’ activated, and using significance threshold score p<0.05. Unique peptide counts (or ‘spectral counts’) and percent sequence coverages for all identified proteins were exported to Scaffold Proteome Software (version 2_06_01, www.proteomesoftware.com) for further bioinformatic analysis (Table 5a). Using output from Mascot, Scaffold validates, organizes, and interprets mass spectrometry data, allowing more easily to manage large amounts of data, to compare samples, and to search for protein modifications.

[2] = system: Hsp90 complexes in K562 cell extract; assay: Nano-LC-MS/MS of PU-beads pull-downs; assay type: binding; conditions: protein identified in PU-beads pull-down of K562 cell extract, QSTAR-Elite QTof MS
Procedure: Protein cargo isolated from cell lysate with PU-beads or control-beads was subjected to proteomic analysis by nano liquid chromatography coupled to tandem mass spectrometry (nano LC-MS/MS). Initial protein identification was performed using the Mascot search engine, and was further evaluated using Scaffold Proteome Software (Tables 5a-d).
as §1

| Molecule | Number of Assigned Spectra, Mia-Paca 2 [1] | Number of Assigned Spectra, K562 Prep 1 [2] | Number of Assigned Spectra, K562 Prep 2 [2] |
| --- | --- | --- | --- |
| B1 | 0 | 0 | 3 |
| B2 | 11 | 5 | 2 |
| B3 | 3 | 0 | 0 |
| B4 | 3 | 0 | 0 |
| B5 | 0 | 0 | 3 |
